The labels stand for the following.
T1: Myo5 SH3 (MYO5_YEAST), Q04439
T1 chain: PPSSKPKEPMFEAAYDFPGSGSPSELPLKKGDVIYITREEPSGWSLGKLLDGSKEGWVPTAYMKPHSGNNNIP

Normalised SPOT signal, Boehringer light units (BLU); mean over the file's lines of this peptide data for 22 molecules are collected here from PMC314469, “Protein Interaction Networks by Proteome Peptide Scanning” (PLoS Biology, 2004).

The assay has as its target T1, Myo5 SH3 (MYO5_YEAST), Q04439. In words: SPOT array.
Molecule SWAVLPVPGGPVMY [YJL195C 85-98] gave a normalised SPOT signal, Boehringer light units (BLU); mean over the file's lines of this peptide of 69.2.
The figure for TAPIHSTPKPPPND [YHR182W 732-745] is 77.7; for TEGKYAPPSQPSMA [YDL195W 822-835] it is 223.
The figure for TEEILPTPVQPGGH [YOL070C 304-317] is 121; for SPSTMDFPKLPSFQ [YPL089C 234-247] it is 467.
The molecule TEDGFVIPALPAAV [YPR190C 407-420] showed a normalised SPOT signal, Boehringer light units (BLU); mean over the file's lines of this peptide of 290.
The same measure for SPVPLGSPRGPLPV [YLR163C 237-250]: 135; for TAWDMVPPYSPLSE [YPR090W 8-21]: 127; for SPSTHAAPVTPIIS [YNL027W 321-334]: 53.3.
Consider SWRSLTKPKIPLYK [YMR287C 119-132], for which the normalised SPOT signal, Boehringer light units (BLU); mean over the file's lines of this peptide came to 357.
The same measure for SWLTMLPPMAPLLS [YMR158W-A 93-106]: 505; for SPVNLLKPFNPTLP [YJL050W 730-743]: 123.
The same measure for TASQLQNPPPPPST [YGR086C 14-27]: 168; for SPKKLASPRTPNAN [YKR077W 157-170]: 276.
The same measure for SPKPFSKPQEPVKA [YCR088W 389-402]: 359; for SPNDHSDPSSPSNR [YNR014W 177-190]: 76.1.
As to TAAELQAPPPPPSS [YPL004C 14-27], the normalised SPOT signal, Boehringer light units (BLU); mean over the file's lines of this peptide came out at 315.
The molecule SPRSLPTPILPSMS [YML083C 47-60] yielded a normalised SPOT signal, Boehringer light units (BLU); mean over the file's lines of this peptide of 193.
The figure for SPLSWSGPLTPPTF [YNL243W 594-607] is 168; for SPSDFNKPDLPELI [YER003C 229-242] it is 317; for SPSQYQYPSQPALS [YKL146W 143-156] it is 65.2.
On to SPRHYNVPSSPIAP [YIL101C 572-585], for which the normalised SPOT signal, Boehringer light units (BLU); mean over the file's lines of this peptide worked out at 233.
